# In patent publication US20200199241A1 (Chugai, published 2020):
# Where a chain is given by its changes, count along the chain named. Names may count otherwise.
# B1: IgG1-F21 (antibody)
# heavy: QVQLQESGPGLVKPSETLSLTCAVSGHSISHDHAWSWVRQPPGEGLEWIGFISYSGITNYNPSLQGRVTISRDNSKNTLYLQMNSLRAEDTAVYYCARSLARTTAMDYWGEGTLVTVSSASTKGPSVFPLAPSSKSTSGGTAALGCLVKDYFPEPVTVSWNSGALTSGVHTFPAVLQSSGLYSLSSVVTVPSSSLGTQTYICNVNHKPSNTKVDKKVEPKSCDKTHTCPPCPAPELLGGPSVFLFPPKPKDTLYISRTPEVTCVVVDVSHEDPEVKFNWYVDGVEVHNAKTKPREEQYNSTYRVVSVLTPLHQDWLNGKEYKCKVSNKALPAPIEKTISKAKGQPREPQVYTLPPSRDELTKNQVSLTCLVKGFYPSDIAVEWESNGQPENNYKTTPPVLDSDGSFFLYSKLTVDKSRWQQGNVFSCSVMHEALHYHYTQKSLSLSP
# light: not shown
# notes: copies: 2 + 2
# B2: IgG1-F112 (antibody)
# heavy: B1 heavy with E382A
# light: not shown
# notes: EU numbering; copies: 2 + 2
# B3: IgG1-F91 (antibody)
# heavy: B1 heavy with M430L
# light: not shown
# notes: EU numbering; copies: 2 + 2
# B4: IgG1-F124 (antibody)
# heavy: B1 heavy with T258E, P310V, M430L
# light: not shown
# notes: EU numbering; copies: 2 + 2
# B5: IgG1-F107 (antibody)
# heavy: B1 heavy with D378A
# light: not shown
# notes: EU numbering; copies: 2 + 2
# B6: IgG1-F93 (antibody)
# heavy: B1 heavy with Y254W, P310V, M430L, Y436W
# light: not shown
# notes: copies: 2 + 2
# B7: IgG1-F99 (antibody)
# heavy: B1 heavy with T258E, P310V, Y436H
# light: not shown
# notes: EU numbering; copies: 2 + 2
# B8: IgG1-F139 (antibody)
# heavy: B1 heavy with Y254W, Y436W
# light: not shown
# notes: EU numbering; copies: 2 + 2
# B9: IgG1-F104 (antibody)
# heavy: B1 heavy with D267A
# light: not shown
# notes: EU numbering; copies: 2 + 2
# B10: IgG1-F137 (antibody)
# heavy: B1 heavy with Y254M, P259V, P310V, M430L
# light: not shown
# notes: EU numbering; copies: 2 + 2
# B11: IgG1-F141 (antibody)
# heavy: B1 heavy with S300G
# light: not shown
# notes: EU numbering; copies: 2 + 2
# B12: IgG1-F109 (antibody)
# heavy: B1 heavy with Q313A
# light: not shown
# notes: EU numbering; 'M4252Y' read as M252Y; copies: 2 + 2
# B13: IgG1-F78 (antibody)
# heavy: B1 heavy with Y254M, S256T, P310V, M430L, Y436W
# light: not shown
# notes: EU numbering; copies: 2 + 2
# B14: IgG1-F86 (antibody)
# heavy: B1 heavy with Y254M, S256T, T258Q, P310V, Y436W
# light: not shown
# notes: EU numbering; copies: 2 + 2
# B15: IgG1-F111 (antibody)
# heavy: B1 heavy with K319A
# light: not shown
# notes: EU numbering; copies: 2 + 2
# B16: IgG1-F129 (antibody)
# heavy: B1 heavy with Y254M, P259A, P310V, M430L
# light: not shown
# notes: EU numbering; copies: 2 + 2
# B17: IgG1-F75 (antibody)
# heavy: B1 heavy with P310V, M430L, Y436A
# light: not shown
# notes: EU numbering; copies: 2 + 2
# B18: IgG1-F87 (antibody)
# heavy: B1 heavy with Y254M, S256T, T258Q, P310V
# light: not shown
# notes: EU numbering; copies: 2 + 2
# B19: IgG1-F74 (antibody)
# heavy: B1 heavy with P310V, M430L
# light: not shown
# notes: EU numbering; copies: 2 + 2
# B20: IgG1-F88 (antibody)
# heavy: B1 heavy with S256T, T258Q, P310V, Y436W
# light: not shown
# notes: EU numbering; copies: 2 + 2
# B21: IgG1-F142 (antibody)
# heavy: B1 heavy with D272F
# light: not shown
# notes: EU numbering; copies: 2 + 2
# B22: IgG1-F77 (antibody)
# heavy: B1 heavy with Y254M, T258E, P310V, M430L
# light: not shown
# notes: EU numbering; copies: 2 + 2
# B23: IgG1-F108 (antibody)
# heavy: B1 heavy with V307A
# light: not shown
# notes: EU numbering; copies: 2 + 2
# B24: IgG1-F39 (antibody)
# heavy: B1 heavy with S256T, P310V
# light: not shown
# notes: EU numbering; copies: 2 + 2
# B25: IgG1-F128 (antibody)
# heavy: B1 heavy with Y254M, P259L, P310V, M430L, Y436W
# light: not shown
# notes: EU numbering; copies: 2 + 2
# B26: IgG1-F140 (antibody)
# heavy: B1 heavy with S241K
# light: not shown
# notes: copies: 2 + 2
# B27: IgG1-F95 (antibody)
# heavy: B1 heavy with S256T, T258E, P310V, M430L, Y436F
# light: not shown
# notes: EU numbering; copies: 2 + 2
# B28: IgG1-F114 (antibody)
# heavy: B1 heavy with S426A
# light: not shown
# notes: EU numbering; copies: 2 + 2
# B29: IgG1-F123 (antibody)
# heavy: B1 heavy with T258E
# light: not shown
# notes: EU numbering; copies: 2 + 2
# B30: IgG1-F85 (antibody)
# heavy: B1 heavy with Y254W, T258Q, P310V
# light: not shown
# notes: EU numbering; copies: 2 + 2
# B31: IgG1-F125 (antibody)
# heavy: B1 heavy with S256T, T258E, M430L
# light: not shown
# notes: EU numbering; copies: 2 + 2
# B32: IgG1-F42 (antibody)
# heavy: B1 heavy with S256T, T258E, P310V, Y436A
# light: not shown
# notes: EU numbering; copies: 2 + 2
# B33: IgG1-F101 (antibody)
# heavy: B1 heavy with Y254W, T258Q, P259L, P310V
# light: not shown
# notes: EU numbering; copies: 2 + 2
# B34: IgG1-F84 (antibody)
# heavy: B1 heavy with Y254W, T258Q, P310V, Y436W
# light: not shown
# notes: EU numbering; copies: 2 + 2
# B35: IgG1-F38 (antibody)
# heavy: B1 heavy with S256T, P310V, Y436W
# light: not shown
# notes: EU numbering; copies: 2 + 2
# B36: IgG1-F89 (antibody)
# heavy: B1 heavy with S256T, T258Q, P310V
# light: not shown
# notes: EU numbering; copies: 2 + 2
# B37: IgG1-F132 (antibody)
# heavy: B1 heavy with Y254M, P259I, P310V, M430L
# light: not shown
# notes: EU numbering; copies: 2 + 2
# B38: IgG1-F122 (antibody)
# heavy: B1 heavy with T258E, P310V, M430L, Y436W
# light: not shown
# notes: EU numbering; copies: 2 + 2
# B39: IgG1-F133 (antibody)
# heavy: B1 heavy with Y254M, P259M, P310V, M430L
# light: not shown
# notes: EU numbering; copies: 2 + 2
# B40: IgG1-F136 (antibody)
# heavy: B1 heavy with Y254M, P259T, P310V, M430L
# light: not shown
# notes: EU numbering; copies: 2 + 2
# B41: IgG1-F134 (antibody)
# heavy: B1 heavy with Y254M, P259N, P310V, M430L
# light: not shown
# notes: EU numbering; copies: 2 + 2
# B42: IgG1-F80 (antibody)
# heavy: B1 heavy with T258Q, P310V, Y436A
# light: not shown
# notes: EU numbering; copies: 2 + 2
# B43: IgG1-F135 (antibody)
# heavy: B1 heavy with Y254M, P259S, P310V, M430L
# light: not shown
# notes: EU numbering; copies: 2 + 2
# B44: IgG1-F113 (antibody)
# heavy: B1 heavy with E384A
# light: not shown
# notes: EU numbering; copies: 2 + 2
# B45: IgG1-F73 (antibody)
# heavy: B1 heavy with P310V, M430L, Y436W
# light: not shown
# notes: EU numbering; copies: 2 + 2
# B46: IgG1-F106 (antibody)
# heavy: B1 heavy with V305A
# light: not shown
# notes: EU numbering; copies: 2 + 2
# B47: IgG1-F131 (antibody)
# heavy: B1 heavy with Y254M, P259G, P310V, M430L
# light: not shown
# notes: EU numbering; copies: 2 + 2
# B48: IgG1-F143 (antibody)
# heavy: B1 heavy with P310A
# light: not shown
# notes: EU numbering; copies: 2 + 2
# B49: IgG1-F130 (antibody)
# heavy: B1 heavy with P310M
# light: not shown
# notes: EU numbering; label printed 'F130' between F149 and F152 (perhaps F150); copies: 2 + 2
# B50: IgG1-F72 (antibody)
# heavy: B1 heavy with S256T, T258E, P310V, M430L
# light: not shown
# notes: EU numbering; copies: 2 + 2
# B51: IgG1-F120 (antibody)
# heavy: B1 heavy with Y254M, P259L, M430L
# light: not shown
# notes: EU numbering; copies: 2 + 2
# B52: IgG1-F81 (antibody)
# heavy: B1 heavy with T258E, P310V, Y436A
# light: not shown
# notes: EU numbering; copies: 2 + 2
# B53: IgG1-F105 (antibody)
# heavy: B1 heavy with T309A
# light: not shown
# notes: EU numbering; copies: 2 + 2
# B54: IgG1-F103 (antibody)
# heavy: B1 heavy with P240A
# light: not shown
# notes: EU numbering; copies: 2 + 2
# B55: IgG1-F121 (antibody)
# heavy: B1 heavy with T258E, M430L, Y436W
# light: not shown
# notes: EU numbering; copies: 2 + 2
# B56: IgG1-F145 (antibody)
# heavy: B1 heavy with P310F
# light: not shown
# notes: EU numbering; copies: 2 + 2
# B57: IgG1-F76 (antibody)
# heavy: B1 heavy with S256T, T258E, P310V, M430L, Y436A
# light: not shown
# notes: EU numbering; copies: 2 + 2
# B58: IgG1-F92 (antibody)
# heavy: B1 heavy with S256T, T258E, M430L, Y436W
# light: not shown
# notes: EU numbering; copies: 2 + 2
# B59: IgG1-F90 (antibody)
# heavy: B1 heavy with T258E, Y436W
# light: not shown
# notes: EU numbering; copies: 2 + 2
# B60: IgG1-F94 (antibody)
# heavy: B1 heavy with Y254M, P259L, P310V, M430L
# light: not shown
# notes: copies: 2 + 2
# Target: T1, human FcRn (soluble human FcRn complexed with β2-microglobulin) (human, UniProt P61769 21-119, limits assumed)
# T1 construct: also called hFcRn
# Test: SPR, pH 7.0;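 note: antibodies captured on a Protein L sensor chip with human FcRn injected as analyte, KD calculated from fitted association and dissociation rate constants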
# Method: A kinetic analysis of binding between human FcRn and the aforementioned antibodies was carried out using the BIACORE™ T100 or T200 surface plasmon resonance system (GE Healthcare). The antibodies being tested were captured on the CM4 Sensor Chip (GE Healthcare) on which a suitable amount of Protein L (ACTIGEN® protein (Alltech)) was suitably immobilized by amine coupling. Next, diluted human FcRn and a running buffer used as a blank were injected to allow the human FcRn to interact with the antibody captured on the sensor chip. A buffer consisting of 50 mmol/L sodium phosphate, 150 mmol/L NaCl and 0.05% (w/v) polysorbate 20 (Tween 20®) (pH 7.0 or pH 7.4) was used for the running buffer, and each buffer was also used to dilute the human FcRn. 10 mmol/L glycine-HCl (pH 1.5) was used to regenerate the sensor chip. All measurements of binding were carried out at 25° C. The KD(M) of each antibody to human FcRn was calculated based on kinetics parameters, i.e., the association rate constant ka (1/Ms) and the dissociation rate constant kd (1/s) calculated from a sensorgram obtained by the measurement. The BIACORE™ T100 or T200 Evaluation Software (GE Healthcare) was used to calculate each parameter.
# T1 sequence (chain, as listed by the source limits assumed, chain 1 of 2): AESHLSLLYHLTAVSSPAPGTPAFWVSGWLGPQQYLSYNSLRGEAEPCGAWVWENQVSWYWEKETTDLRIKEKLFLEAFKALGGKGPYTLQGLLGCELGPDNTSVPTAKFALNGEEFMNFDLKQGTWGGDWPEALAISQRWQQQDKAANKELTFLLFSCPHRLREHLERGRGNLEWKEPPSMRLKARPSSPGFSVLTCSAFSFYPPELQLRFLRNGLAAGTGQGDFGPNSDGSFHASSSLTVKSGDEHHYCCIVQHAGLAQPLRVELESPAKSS
# T1 sequence (P61769 21-119 limits assumed, chain 2 of 2): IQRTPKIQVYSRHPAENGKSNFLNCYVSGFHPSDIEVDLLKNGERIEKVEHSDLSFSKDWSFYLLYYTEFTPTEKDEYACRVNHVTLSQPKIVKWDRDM
row,Binder,Kd [nM]
1,B1,30
2,B2,64
3,B3,48
4,B4,290
5,B5,34
6,B6,740
7,B7,620
8,B8,15
9,B9,37
10,B10,460
11,B11,35
12,B12,32
13,B13,780
14,B14,1500
15,B15,32
16,B16,220
17,B17,1400
18,B18,4300
19,B19,460
20,B20,190

row,Binder,Kd [nM]
1,B21,37
2,B22,990
3,B23,41
4,B24,300
5,B25,170
6,B26,36
7,B27,260
8,B28,38
9,B29,30
10,B30,550
11,B31,24
12,B32,1000
13,B33,110
14,B34,280
15,B35,100
16,B36,360
17,B37,210
18,B38,120
19,B39,410
20,B40,380

row,Binder,Kd [nM]
1,B41,270
2,B42,2700
3,B43,750
4,B44,32
5,B45,170
6,B46,37
7,B47,3000
8,B48,200
9,B49,200
10,B50,200
11,B51,63
12,B52,1600
13,B53,75
14,B54,44
15,B55,15
16,B56,53
17,B57,1000
18,B58,11
19,B59,19
20,B60,370
